Test results published in article PMC6311707.

Target: NtermRGS2-GFP-CIBN (R2helix-CIBN component of opto-RGS2, GFP-tagged)
Experiment: light-induced membrane translocation

τoff (time constant of dark reversion from the membrane): 396 s
τon (time constant of light-induced membrane translocation): 19.7 s
Substance: CRY2-mCherry-(GGGGS)3-RGS2box (CRY2-R2box component of opto-RGS2)
